# Assay results as given in article PMC9456297 (International Journal of Molecular Sciences, 2022).
# B1: 4N1H VHH (bacterially produced, c-myc- and His-tagged) (VHH)
# VHH: EVQLQESGGGLVQAGASLKLSCAASGRTFSSYAMGWFRQAPGKEREFVAAISRSGGDTKYADSVKGRFAISRDNDKNTVWLRMNSLKPEDTAVYYCAATTYASLSDTYIGEHIYDDWGQGTQVTVSS
# notes: also called cAB-F11N
# B2: 238D2 nanobody (bacterially produced, c-myc- and His-tagged) (VHH)
# VHH: EVQLVESGGGLVQTGGSLRLSCAASGFTFSSYAMSWVRQAPGKGLEWVSGIKSSGDSTRYAGSVKGRFTISRDNAKNMLYLQMYSLKPEDTAVYYCAKSRVSRTGLYTYDNRGQGTQVTVSS
# notes: also called anti-CXCR4 Nb
# B3: 3SM5 VH domain (bacterially produced, c-myc- and His-tagged) (domain or fragment)
# VH: MEVQLVQSGAEVKKPGASVKVSCKASGYTFTDYHINWVRQAPGQGLEWMGWIHPNSGDTNYAQKFQGWVTMTRDTAISTAYMEVNGLKSDDTAVYYCARGGLEPRSVDYYYYGMDVWGQGTTVTVSS
# notes: also called VH of CH65
# Columns and labels:
# [1] = molecular target: AviTag-238D2 (biotinylated, c-myc-tagged 238D2); assay: BLI
# [2] = molecular target: AviTag-3SM5 (biotinylated, c-myc-tagged 3SM5 VH); assay: BLI
# [3] = molecular target: T1, SNAP-tagged hCXCR4 labelled with Lumi4-Terbium (human, UniProt P61073 1-352, Lumi4-Terbium on the SNAP tag); assay: AlphaScreen or HTRF; conditions: one partner purified
# T1 construct: also called SNAP-CXCR4; Terbium-linked SNAP-tagged CXCR4
# T1 sequence (P61073 whole entry): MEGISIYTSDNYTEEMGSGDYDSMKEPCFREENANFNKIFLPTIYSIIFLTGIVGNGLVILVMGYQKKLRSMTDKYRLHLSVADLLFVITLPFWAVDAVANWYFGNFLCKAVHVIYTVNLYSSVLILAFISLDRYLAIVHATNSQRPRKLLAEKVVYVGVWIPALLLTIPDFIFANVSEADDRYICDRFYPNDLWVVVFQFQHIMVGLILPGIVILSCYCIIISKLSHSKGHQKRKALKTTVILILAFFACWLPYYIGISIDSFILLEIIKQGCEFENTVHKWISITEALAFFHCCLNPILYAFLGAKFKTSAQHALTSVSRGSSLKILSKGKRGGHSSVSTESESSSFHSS
Molecule,Kd [1] [nM],Kd [2] [nM],IC50 [3] [nM]
Influenza A H1N1 (A/SOLOMON ISLANDS/3/2006): hemagglutinin H1 as a fusion protein with the neuraminidase N1,119,236,–
B1,–,–,39.8
B2,–,–,58.4
B3,–,–,69.1
